Ends that are not written are not given here.
How the values were obtained:
hDMX_(1-200) [1] = molecular target: T1, hDMX_(1-200) (human, UniProt O15151 1-200); assay: fluorescence polarisation
T1 sequence (looked up): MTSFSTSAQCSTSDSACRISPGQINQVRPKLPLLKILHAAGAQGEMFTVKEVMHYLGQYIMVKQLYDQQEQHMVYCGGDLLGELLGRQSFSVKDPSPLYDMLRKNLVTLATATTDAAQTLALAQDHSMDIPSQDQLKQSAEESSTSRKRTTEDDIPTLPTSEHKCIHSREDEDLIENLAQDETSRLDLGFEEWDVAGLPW

hDMX_(1-200) [2] = molecular target: T1, hDMX_(1-200); assay: fluorescence polarisation; remark: listed apart in the source

Row | Binder | IC50 (hDMX_(1-200) [1]) [nM] | Kd (hDMX_(1-200) [2]) [nM]
1 | MRPFMDYWEGLN [p53 12/1] | 3870 ± 389 | –
2 | MRPFMDYWEGLN (also: fluorescent label (flu), position not given here) [p53 12/1^flu] | – | 237 ± 21.5
3 | SQETFSDLWKLLPENNV (peptide, UniProt P04637 15-31, looked up, also: fluorescent label (flu), position not given here) [p53AD15−31^flu] | – | 841 ± 28.8
